# Reference: paper PMC5646979 (Molecular Medicine Reports, 2017)
# T1: Glu225Ala mutant RANKL (UniProt O35235 139-316, Glu225Ala)
# T1 sequence (looked up): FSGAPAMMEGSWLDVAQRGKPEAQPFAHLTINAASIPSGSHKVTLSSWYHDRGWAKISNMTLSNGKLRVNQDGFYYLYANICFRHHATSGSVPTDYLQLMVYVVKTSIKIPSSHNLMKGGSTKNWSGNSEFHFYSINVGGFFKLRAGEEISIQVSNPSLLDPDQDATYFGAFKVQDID
# Target: T1, Glu225Ala mutant RANKL
# Assay: SPR
binder,measurement,value
"Recombinant soluble RANK (receptor activator of nuclear factor κ-B) (receptor, murine, UniProt O35305 31-214, looked up) VTPPCTQERHYEHLGRCCSRCEPGKYLSSKCTPTSDSVCLPCGPDEYLDTWNEEDKCLLHKVCDAGKALVAVDPGNHTAPRRCACTAGYHWNSDCECCRRNTECAPGFGAQHPLQLNKDTVCTPCLLGFFSDVFSSTDKCKPWTNCTLLGKLEAHQGTTESDVVCSSSMTLRRPPKEAQAYLPS",fold decrease of binding affinity against wild-type RANKL,100 fold
